According to patent US20260098102A1 (NATIONAL UNIVERSITY CORPORATION KOBE UNIVERSITY, published 2026):

T1: mouse SIRPA variant hmSIRPA_Δ0 (mouse (with human residues), UniProt P97797 35-513)
T1 construct: FLAG-tagged (pFLAG V5-DEST), on 293α cells
T1 chain: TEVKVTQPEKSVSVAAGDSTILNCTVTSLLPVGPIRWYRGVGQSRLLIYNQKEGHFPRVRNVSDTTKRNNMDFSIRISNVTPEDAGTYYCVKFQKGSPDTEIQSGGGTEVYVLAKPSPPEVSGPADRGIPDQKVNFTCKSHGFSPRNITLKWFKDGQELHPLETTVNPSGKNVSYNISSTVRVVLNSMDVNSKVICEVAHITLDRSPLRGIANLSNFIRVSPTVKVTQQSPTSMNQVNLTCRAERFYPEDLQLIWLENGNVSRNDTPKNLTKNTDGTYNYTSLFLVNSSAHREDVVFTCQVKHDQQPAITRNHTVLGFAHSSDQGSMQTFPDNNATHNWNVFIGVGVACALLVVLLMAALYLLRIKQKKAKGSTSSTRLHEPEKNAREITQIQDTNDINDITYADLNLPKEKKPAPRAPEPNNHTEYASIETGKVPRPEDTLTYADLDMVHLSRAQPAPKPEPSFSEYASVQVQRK

T2: human SIRPA_V4 (human, UniProt P78324 31-504)
T2 construct: FLAG-tagged (pFLAG V5-DEST), on 293α cells; also called human SIRPA Variant 4
T2 chain: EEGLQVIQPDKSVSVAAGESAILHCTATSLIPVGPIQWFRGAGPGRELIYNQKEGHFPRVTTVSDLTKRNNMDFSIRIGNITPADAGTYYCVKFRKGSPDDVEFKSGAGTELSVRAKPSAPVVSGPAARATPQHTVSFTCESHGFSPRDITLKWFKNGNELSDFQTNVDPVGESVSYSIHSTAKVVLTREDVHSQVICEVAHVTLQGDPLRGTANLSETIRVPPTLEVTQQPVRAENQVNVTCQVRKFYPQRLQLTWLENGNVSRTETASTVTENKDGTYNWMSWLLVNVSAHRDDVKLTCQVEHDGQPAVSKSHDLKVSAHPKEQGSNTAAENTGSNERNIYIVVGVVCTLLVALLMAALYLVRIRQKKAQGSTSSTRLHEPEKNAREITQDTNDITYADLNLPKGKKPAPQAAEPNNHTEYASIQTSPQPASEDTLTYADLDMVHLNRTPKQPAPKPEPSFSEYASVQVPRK

T3: mouse SIRPA BALB/c (mouse (BALB/c), UniProt P97797 35-513)
T3 construct: FLAG-tagged (pFLAG V5-DEST), on 293α cells
T3 chain: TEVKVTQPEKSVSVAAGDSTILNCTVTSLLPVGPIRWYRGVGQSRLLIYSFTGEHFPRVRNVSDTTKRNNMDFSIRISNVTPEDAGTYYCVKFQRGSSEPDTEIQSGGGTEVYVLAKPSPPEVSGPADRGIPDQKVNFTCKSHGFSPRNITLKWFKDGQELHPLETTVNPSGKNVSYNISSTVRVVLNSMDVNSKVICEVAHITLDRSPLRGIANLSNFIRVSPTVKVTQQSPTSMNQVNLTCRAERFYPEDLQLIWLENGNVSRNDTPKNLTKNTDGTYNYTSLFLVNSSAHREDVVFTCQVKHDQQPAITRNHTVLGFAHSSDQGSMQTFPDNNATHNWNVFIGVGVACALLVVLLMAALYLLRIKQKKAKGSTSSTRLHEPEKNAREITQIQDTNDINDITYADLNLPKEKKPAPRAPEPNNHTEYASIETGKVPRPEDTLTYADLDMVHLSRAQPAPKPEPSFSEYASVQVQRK


Columns and labels:
[1] = target: T1, mouse SIRPA variant hmSIRPA_Δ0; experiment: cell-based ELISA on 293α cells expressing FLAG-tagged hmSIRPA_Δ0; Abs 490 normalized to FLAG tag [i]
Procedure: After the culture supernatant of 293α cells into which the pFLAG V5-DEST-hmSIRPA_Δ0, Δ1, and Δ2 expression vector prepared in 2)-1-2-2 was introduced and the pFLAG V5-DEST-introduced 293α cells was removed, 50 μL per well of four different D13 humanized anti-human SIRPA antibodies and a chimeric anti-human SIRPA antibody diluted with 5% FBS-containing PBS to a final concentration of 10,000 ng/mL were added to these cells, and the mixture was allowed to stand at 4° C. for one hour. Further, 50 μL per well of an anti-FLAG M2 antibody (SIGMA) diluted with 5% FBS-containing PBS to a final concentration of 10,000 ng/mL was added to a well for detecting expression of each SIRPA construct, and the mixture was allowed to stand at 4° C. for one hour. Thereafter, binding to each construct was evaluated in the same manner as in the evaluation of the binding activity of the human SIRPA. Binding of anti-human SIRPA antibodies to each construct was standardized by expression of the FLAG tag.

human SIRPA_V4 = target: T2, human SIRPA_V4; experiment: cell-based ELISA on 293α cells expressing FLAG-tagged SIRPA_V4; Abs 490 normalized to FLAG tag [iv]
Procedure: (§1) The 293a cells, described in Example 1)-6, were prepared at 5× 10⁵ cells/mL in a 10% FBS-containing DMEM medium. pFLAG V5-DEST-SIRPA_V1-V10, pFLAG V5-DEST-monkey SIRPA, pFLAG V5-DEST-mouse SIRPA, or pFLAG V5-DEST was introduced into the cells using Lipofectamine LTX (Invitrogen), and 100 μL each was aliquoted to a 96-well plate (Corning Incorporated) and cultured overnight in a 10% FBS-containing DMEM medium at 37° C. under a 5% CO₂ condition. The obtained introduced cells were used for cell-based ELISA in a state that they adhered. After the culture supernatant was removed, 50 μL per well of hD13_HIL3, hD13_HIL4h, hD13_H2L2, hD13_H2L3, or cD13 prepared in Examples 6 and 7 or a control antibody was added to each of various SIRPA genes-introduced cells at a final concentration of 0 to 10,000 ng/ml, and the mixture was allowed to stand at 4° C. for one hour. Thereafter, binding to human SIRPA was evaluated in the same manner as in Example 5-1.

mouse SIRPA BALB/c = target: T3, mouse SIRPA BALB/c; experiment: cell-based ELISA on 293α cells expressing FLAG-tagged mouse SIRPA (BALB/c); Abs 490 normalized to FLAG tag [ii]
Procedure: as §1

Row | Binder | binding result [1] | EC50 (read off the curve) (human SIRPA_V4) [mg/L] | binding result (mouse SIRPA BALB/c)
1 | humanized anti-SIRPA antibody hD13_H1L3 (antibody, human IgG4 S228P, kappa, F234A L235A, V domains shown, hH1 heavy chain (IgG4proFALA) and hL3 kappa light chain; also called hD13_HIL3; HIL3 antibody) VH: QVQLVESGGGVVQPGRSLRLSCAASGFTFSDYGMIWVRQAPGKGLEWVASISSSSSYIYYADSVKGRFTISRDNSKNRLYLQMNSLRAEDTAVYYCARRYYGFNYPFDYWGQGTMVTVSS VL: DTQLTQSPSSLSASVGQRVTITCGASKSVRTYMHWYQQKPGKQPKLLIYSASNLEAGVPSRFSGSGSGTDFTLTISSLQPEDFATYYCQQSNEPPYTFGQGTKLEIKR | binds | ~0.03 | no binding (tested: 10000 ng/mL)
2 | humanized anti-SIRPA antibody hD13_H2L3 (antibody, human IgG4 S228P, kappa, F234A L235A, V domains shown, hH2 heavy chain (IgG4proFALA) and hL3 kappa light chain; also called H2L3 antibody) VH: EVQLVESGGGVVQPGRSLRLSCAASGFTFSDYGMIWVRQAPGKGLEWVASISSSSSYIYYADSVKGRFTISRDNSKNTLYLQMNSLRAEDTAVYYCARRYYGFNYPFDYWGQGTMVTVSS VL: DTQLTQSPSSLSASVGQRVTITCGASKSVRTYMHWYQQKPGKQPKLLIYSASNLEAGVPSRFSGSGSGTDFTLTISSLQPEDFATYYCQQSNEPPYTFGQGTKLEIKR | binds | ~0.04 | no binding (tested: 10000 ng/mL)
3 | humanized anti-SIRPA antibody hD13_H2L2 (antibody, human IgG4 S228P, kappa, F234A L235A, V domains shown, hH2 heavy chain (IgG4proFALA) and hL2 kappa light chain; also called H2L2 antibody) VH: EVQLVESGGGVVQPGRSLRLSCAASGFTFSDYGMIWVRQAPGKGLEWVASISSSSSYIYYADSVKGRFTISRDNSKNTLYLQMNSLRAEDTAVYYCARRYYGFNYPFDYWGQGTMVTVSS VL: AIQLTQSPSSLSASVGQRVTITCGASKSVRTYMHWYQQKPGKAPKLLIYSASNLEAGVPSRFSGSGSGTDFTLTISSLQPEDFATYYCQQSNEPPYTFGQGTKLEIKR | binds | ~0.04 | no binding (tested: 10000 ng/mL)
4 | humanized anti-SIRPA antibody hD13_H1L4 (antibody, human IgG4 S228P, kappa, F234A L235A, V domains shown, hH1 heavy chain (IgG4proFALA) and hL4 kappa light chain; also called hD13_HIL4; hD13_HIL4h) VH: QVQLVESGGGVVQPGRSLRLSCAASGFTFSDYGMIWVRQAPGKGLEWVASISSSSSYIYYADSVKGRFTISRDNSKNRLYLQMNSLRAEDTAVYYCARRYYGFNYPFDYWGQGTMVTVSS VL: DTVLTQSPDSLAVSLGQRATINCGASKSVRTYMHWYQQKPGQQPKLLIYSASNLEAGVPSRFSGSGSGTDFTLTISSLQAEDVAVYYCQQSNEPPYTFGQGTKVEIKR | binds | ~0.04 | no binding (tested: 10000 ng/mL)
5 | human chimeric anti-SIRPA antibody cD13 (antibody, human IgG4 S228P, kappa, F234A L235A, V domains shown, Human IgG4proFALA heavy chain, human kappa light chain; also called cD13 (IgG4pf); human chimeric antibody D13) VH: EVQLVESGGGLVQPGRSLKLSCLASGFTFSDYGMIWVRQAPGKGLEWVASISSSSSYIYYADTVKGRFTISRENAKNTLFLHMTSLRSEDTALYYCARRYYGFNYPFDYWGQGVMVTVSS VL: DTVLTQSPALAVSLGQRVTISCGASKSVRTYMHWYQQKSGQQPKLLIYSASNLEAGVPSRFSGSGSGTDFTLTIDPVEADDIANYYCQQSNEPPYTFGAGTKLELKR | binds | ~0.04 | no binding (tested: 10000 ng/mL)
